Assay results published in patent publication US20190085084A1 (published 2019).

How the values were obtained:
[1] = molecular target: T1, Human His-tagged Sortilin (R&D Systems) (human, UniProt Q99523 78-755); assay: ELISA, biotinylated Progranulin on plate-immobilized Sortilin
T1 construct: Bought protein; also called His-captured Sortilin (SORT1); Histidine-tagged human Sortilin
Protocol: (§1) Briefly, human or mouse Sortilin (R&D Systems) was immobilized overnight on an ELISA plate (2 μg/ml in PBS). The plates were washed in wash buffer (PBS+0.05% TWEEN20) and blocked for one hour at 37° C. with binding buffer (PBS+1% BSA). […] Plates were washed thrice in wash buffer and incubated with Streptavidin-HRP (1:200 in binding buffer, R&D Systems) for 20 min. Plates were washed thrice again and incubated with TMB substrate solution until color developed. The reaction was stopped by adding 50 ul of 2N sulfuric acid and color was quantified using a Biotek Synergy H1 plate reader. Data was analyzed and fitted in Prism.

[2] = molecular target: T1, Human His-tagged Sortilin (R&D Systems); assay: Biacore SPR, Sortilin captured by anti-His antibody on CM5 chip, Progranulin flowed over
Description: Briefly, Sortilin was captured on a CM5 sensor chip that was immobilized with an anti-His antibody (kit from GE). Progranulin was flowed over in HBS binding buffer at various concentrations. Fitting of sensorgrams for affinity estimations was done using BIAevaluation version 3.1.

[3] = molecular target: T2, mouse Sortilin (R&D Systems), recombinant (mouse, UniProt Q6PHU5 74-754, limits assumed); assay: ELISA, biotinylated Progranulin on plate-immobilized Sortilin
T2 construct: Bought protein; also called mouse SORT1
Protocol: as §1

[4] = molecular target: T3, human Sortilin expressed on HEK293T cells (human, UniProt Q99523 78-830); assay: flow cytometry titration on HEK293T cells expressing human Sortilin, 4 C, apparent KD
T3 construct: also called hSort; HEK293T+ hSort

[5] = molecular target: T4, mouse Sortilin expressed on HEK293T cells (mouse, UniProt Q6PHU5 74-825); assay: flow cytometry titration on HEK293T cells expressing mouse Sortilin, 4 C, apparent KD
T4 construct: also called msSort; mSort

Kd [4] [nM]	Kd [5] [nM]	Binder	also measured
3.84	6.62	anti-Sortilin antibody S-15-6-12 (antibody, V domains shown) VH: QVQLVQSGAEVKKPGASVKVSCKASGYTFTSRYMSWVRQAPGQGLEWMGIINPVGGSTSYAQKFQGRVTMTRDTSTSTVYMELSSLRSEDTAVYYCARDPSGIALAGPGSPYYRGMDVWGQGTTVTVSS VL: EIVMTQSPATLSVSPGERATLSCRASQSVSSNLAWYQQKPGQAPRLLIYGASTRATGIPARFSGSGSGTEFTLTISSLQSEDFAVYYCQQARLGPWTFGGGTKVEIK	–
4.3	8.89	anti-Sortilin antibody S-15-10-12 (antibody, V domains shown) VH: QVQLVQSGAEVKKPGASVKVSCKASGYTFTKYYMSWVRQAPGQGLEWMGIINPIGGSTSYAQKFQGRVTMTRDTSTSTVYMELSSLRSEDTAVYYCARDPSGIAAAFPAGRYYYGMDVWGQGTTVTVSS VL: EIVMTQSPATLSVSPGERATLSCRASQSVSSNLAWYQQKPGQAPRLLIYGASTRATGIPARFSGSGSGTEFTLTISSLQSEDFAVYYCQQARLGPWTFGGGTKVEIK	–

More lines, now with the values behind:

Binder	Kd [4] [nM]	Kd [5] [nM]	also measured
recombinant human Progranulin (Adipogen) (ligand, UniProt P28799 18-593, looked up, Used unlabelled, biotinylated (NHS-PEG4 or Sulfo-NHS) or labelled with DyLight 650, as the assay says; also called PGRN; hPGRN) TRCPDGQFCPVACCLDPGGASYSCCRPLLDKWPTTLSRHLGGPCQVDAHCSAGHSCIFTVSGTSSCCPFPEAVACGDGHHCCPRGFHCSADGRSCFQRSGNNSVGAIQCPDSQFECPDFSTCCVMVDGSWGCCPMPQASCCEDRVHCCPHGAFCDLVHTRCITPTGTHPLAKKLPAQRTNRAVALSSSVMCPDARSRCPDGSTCCELPSGKYGCCPMPNATCCSDHLHCCPQDTVCDLIQSKCLSKENATTDLLTKLPAHTVGDVKCDMEVSCPDGYTCCRLQSGAWGCCPFTQAVCCEDHIHCCPAGFTCDTQKGTCEQGPHQVPWMEKAPAHLSLPDPQALKRDVPCDNVSSCPSSDTCCQLTSGEWGCCPIPEAVCCSDHQHCCPQGYTCVAEGQCQRGSEIVAGLEKMPARRASLSHPRDIGCDQHTSCPVGQTCCPSLGGSWACCQLPHAVCCEDRQHCCPAGYTCNVKARSCEKEVVSAQPATFLARSPHVGVKDVECGEGHFCHDNQTCCRDNRQGWACCPYRQGVCCADRRHCCPAGFRCAARGTKCLRREAPRWDAPLRDPALRQLL	–	–	Kd [1]: 14 nM; Kd [2]: 14.3 nM
recombinant mouse Progranulin (Adipogen) (ligand, UniProt P28798 18-589, looked up, Used biotinylated; also called mPGRN; mouse PGRN) TQCPDGQFCPVACCLDQGGANYSCCNPLLDTWPRITSHHLDGSCQTHGHCPAGYSCLLTVSGTSSCCPFSKGVSCGDGYHCCPQGFHCSADGKSCFQMSDNPLGAVQCPGSQFECPDSATCCIMVDGSWGCCPMPQASCCEDRVHCCPHGASCDLVHTRCVSPTGTHTLLKKFPAQKTNRAVSLPFSVVCPDAKTQCPDDSTCCELPTGKYGCCPMPNAICCSDHLHCCPQDTVCDLIQSKCLSKNYTTDLLTKLPGYPVKEVKCDMEVSCPEGYTCCRLNTGAWGCCPFAKAVCCEDHIHCCPAGFQCHTEKGTCEMGILQVPWMKKVIAPLRLPDPQILKSDTPCDDFTRCPTNNTCCKLNSGDWGCCPIPEAVCCSDNQHCCPQGFTCLAQGYCQKGDTMVAGLEKIPARQTTPLQIGDIGCDQHTSCPVGQTCCPSLKGSWACCQLPHAVCCEDRQHCCPAGYTCNVKARTCEKDVDFIQPPVLLTLGPKVGNVECGEGHFCHDNQTCCKDSAGVWACCPYLKGVCCRDGRHCCPGGFHCSARGTKCLRKKIPRWDMFLRDPVPRPLL	–	–	Kd [3]: 40 nM
anti-Sortilin antibody S-22-7 (antibody, V domains shown) VH: QVQLVQSGAEVKKPGSSVKVSCKASGGTFSSYAISWVRQAPGQGLEWMGGIIPGFGRANYAQKFQGRVTITADESTSTAYMELSSLRSEDTAVYYCARQGRKTGYYYYYGMDVWGQGTTVTVSS VL: DIQMTQSPSTLSASVGDRVTITCRASQSISSWLAWYQQKPGKAPKLLIYKASSLESGVPSRFSGSGSGTEFTLTISSLQPDDFATYYCQQADGHITFGGGTKVEIK	2.05	–	–
